# Test results: article doi:10.1101/2023.11.22.568357 (bioRxiv, 2023)
# T1: PTPRF ectodomain (30-1263)-hFc (human, UniProt P10586-1 30-1263)
# T1 sequence (looked up): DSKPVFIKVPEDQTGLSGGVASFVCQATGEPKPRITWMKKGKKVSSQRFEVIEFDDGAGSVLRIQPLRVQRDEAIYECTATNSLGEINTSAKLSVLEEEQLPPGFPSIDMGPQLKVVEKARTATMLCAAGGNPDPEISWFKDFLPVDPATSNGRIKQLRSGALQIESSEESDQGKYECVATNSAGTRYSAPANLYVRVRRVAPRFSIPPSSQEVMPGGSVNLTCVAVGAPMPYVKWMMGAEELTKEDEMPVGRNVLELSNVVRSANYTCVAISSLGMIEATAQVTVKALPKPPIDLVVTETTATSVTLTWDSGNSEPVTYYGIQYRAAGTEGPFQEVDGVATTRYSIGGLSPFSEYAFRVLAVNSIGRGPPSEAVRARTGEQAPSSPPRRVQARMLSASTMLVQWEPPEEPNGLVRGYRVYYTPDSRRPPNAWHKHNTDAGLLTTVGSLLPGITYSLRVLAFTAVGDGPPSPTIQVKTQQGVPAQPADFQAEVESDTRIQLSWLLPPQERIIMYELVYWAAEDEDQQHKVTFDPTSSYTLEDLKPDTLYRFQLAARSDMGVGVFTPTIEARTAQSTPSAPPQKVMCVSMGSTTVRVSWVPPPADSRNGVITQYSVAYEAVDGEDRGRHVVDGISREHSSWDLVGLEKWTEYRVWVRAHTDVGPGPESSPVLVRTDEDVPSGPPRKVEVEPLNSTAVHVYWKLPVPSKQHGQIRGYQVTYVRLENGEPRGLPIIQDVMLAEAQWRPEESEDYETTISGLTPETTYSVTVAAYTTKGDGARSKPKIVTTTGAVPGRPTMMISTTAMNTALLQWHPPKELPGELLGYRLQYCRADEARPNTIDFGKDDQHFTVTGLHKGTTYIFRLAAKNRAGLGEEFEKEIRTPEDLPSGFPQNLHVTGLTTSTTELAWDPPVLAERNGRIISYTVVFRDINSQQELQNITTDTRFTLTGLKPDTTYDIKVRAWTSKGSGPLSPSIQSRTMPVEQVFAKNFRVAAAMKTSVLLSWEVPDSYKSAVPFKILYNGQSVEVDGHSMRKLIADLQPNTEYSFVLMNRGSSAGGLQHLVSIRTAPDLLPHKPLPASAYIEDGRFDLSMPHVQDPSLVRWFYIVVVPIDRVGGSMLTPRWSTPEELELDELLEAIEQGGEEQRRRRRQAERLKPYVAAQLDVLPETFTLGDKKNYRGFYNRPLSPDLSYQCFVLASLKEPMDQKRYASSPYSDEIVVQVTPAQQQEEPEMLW
# B1: His-TEV LRRC4B(36-576) (domain or fragment, human, UniProt Q9NT99 36-576, looked up)
# chain: AGGGGVAVTSAAGGGSPPATSCPVACSCSNQASRVICTRRDLAEVPASIPVNTRYLNLQENGIQVIRTDTFKHLRHLEILQLSKNLVRKIEVGAFNGLPSLNTLELFDNRLTTVPTQAFEYLSKLRELWLRNNPIESIPSYAFNRVPSLRRLDLGELKRLEYISEAAFEGLVNLRYLNLGMCNLKDIPNLTALVRLEELELSGNRLDLIRPGSFQGLTSLRKLWLMHAQVATIERNAFDDLKSLEELNLSHNNLMSLPHDLFTPLHRLERVHLNHNPWHCNCDVLWLSWWLKETVPSNTTCCARCHAPAGLKGRYIGELDQSHFTCYAPVIVEPPTDLNVTEGMAAELKCRTGTSMTSVNWLTPNGTLMTHGSYRVRISVLHDGTLNFTNVTVQDTGQYTCMVTNSAGNTTASATLNVSAVDPVAAGGTGSGGGGPGGSGGVGGGSGGYTYFTTVTVETLETQPGEEALQPRGTEKEPPGPTTDGVWGGGRPGDAAGPASSSTTAPAPRSSRPTEKAFTVPITDVTENALKDLDDVMKTTK
# B2: LRRC4B(453-576)-hFc (Fc fusion)
# chain: VSAVDPVAAGGTGSGGGGPGGSGGVGGGSGGYTYFTTVTVETLETQPGEEALQPRGTEKEPPGPTTDGVWGGGRPGDAAGPASSSTTAPAPRSSRPTEKAFTVPITDVTENALKDLDDVMKTTK
# Experiments:
# [1] = target: His-TEV LRRC4B (limits not told for Fig. 1G) (human); experiment: ELISA
# [2] = target: His-TEV LRRC4B(36-576) (human) (UniProt Q9NT99); experiment: ELISA
# [3] = target: LRRC4B(453-576)-hFc (human) (UniProt Q9NT99); experiment: ELISA
# [4] = target: LRRC4B(484-576)-hFc (human) (UniProt Q9NT99); experiment: ELISA
# [5] = target: 6xHis-LRRC4B(453–576) (human) (UniProt Q9NT99); experiment: SPR
# [6] = target: T1, PTPRF ectodomain (30-1263)-hFc; experiment: ELISA
# [7] = target: FAM19A5 (wild type, recombinant) (human); experiment: ELISA
molecule,measurement,setting,value
"FAM19A5 (wild type, recombinant) (ligand)",EC50,[1],0.41 nM
same,IC50,[2],281 nM
same,EC50,[3],0.0685 nM
same,EC50,[4],0.112 nM
same,Kd,[5],0.0321 nM
same,koff,[5],0.000157 s⁻¹
same,kon,[5],4.89e+06 M⁻¹ s⁻¹
"MT FAM19A5(R58A, R59A) (ligand)",EC50,[1],0.595 nM
B1,binding result,[6],binds
B2,IC50,[7],8.1 nM
